Experimental data reported in US20220242950A1 (CANTARGIA, published 2022).
Numbering of substitutions follows the chain as printed.

Experiments:
[1] = molecular target: T1, human IL1RAP on the cell surface (human, UniProt Q9NPH3 21-570); experiment: cell-based or functional assay
T1 sequence (looked up): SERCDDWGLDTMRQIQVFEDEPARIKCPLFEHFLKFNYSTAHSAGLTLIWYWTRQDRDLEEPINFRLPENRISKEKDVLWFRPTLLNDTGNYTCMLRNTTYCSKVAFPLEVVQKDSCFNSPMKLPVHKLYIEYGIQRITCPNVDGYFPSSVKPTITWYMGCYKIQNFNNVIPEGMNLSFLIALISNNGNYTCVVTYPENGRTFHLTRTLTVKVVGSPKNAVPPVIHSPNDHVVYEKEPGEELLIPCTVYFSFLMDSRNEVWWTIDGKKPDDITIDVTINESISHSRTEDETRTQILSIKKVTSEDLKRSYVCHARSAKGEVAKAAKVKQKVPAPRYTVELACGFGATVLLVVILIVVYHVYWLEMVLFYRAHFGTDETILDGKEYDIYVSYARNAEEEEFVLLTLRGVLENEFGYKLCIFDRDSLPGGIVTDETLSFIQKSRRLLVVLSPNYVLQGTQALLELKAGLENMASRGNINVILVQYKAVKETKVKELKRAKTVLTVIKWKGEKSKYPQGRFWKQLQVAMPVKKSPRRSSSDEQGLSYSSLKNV

rat IL1RAP = molecular target: T2, rat IL1RAP (rat (Rattus norvegicus), UniProt Q63621 21-367, limits assumed); experiment: indirect ELISA on coated IL1RAP, goat anti-human antibody-alkaline phosphatase, absorbance at 405 nm
T2 construct: also called rnIL1RAP
T2 sequence (looked up): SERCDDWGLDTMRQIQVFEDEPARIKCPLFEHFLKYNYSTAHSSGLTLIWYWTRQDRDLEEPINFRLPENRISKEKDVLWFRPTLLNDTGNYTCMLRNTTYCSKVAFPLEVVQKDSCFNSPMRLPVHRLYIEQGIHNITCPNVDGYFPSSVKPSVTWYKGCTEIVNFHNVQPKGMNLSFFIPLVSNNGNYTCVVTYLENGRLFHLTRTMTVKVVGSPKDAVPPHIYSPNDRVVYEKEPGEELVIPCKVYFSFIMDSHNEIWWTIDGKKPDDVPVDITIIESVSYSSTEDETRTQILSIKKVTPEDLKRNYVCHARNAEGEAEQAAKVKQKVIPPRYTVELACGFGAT

mouse IL1RAP = molecular target: T3, mouse IL1RAP (mouse (Mus musculus), UniProt Q61730 21-367, limits assumed); experiment: as above
T3 construct: Coated ortholog in the cross reactivity ELISA; also called mIL1RAP; murine IL1RAP
T3 sequence (looked up): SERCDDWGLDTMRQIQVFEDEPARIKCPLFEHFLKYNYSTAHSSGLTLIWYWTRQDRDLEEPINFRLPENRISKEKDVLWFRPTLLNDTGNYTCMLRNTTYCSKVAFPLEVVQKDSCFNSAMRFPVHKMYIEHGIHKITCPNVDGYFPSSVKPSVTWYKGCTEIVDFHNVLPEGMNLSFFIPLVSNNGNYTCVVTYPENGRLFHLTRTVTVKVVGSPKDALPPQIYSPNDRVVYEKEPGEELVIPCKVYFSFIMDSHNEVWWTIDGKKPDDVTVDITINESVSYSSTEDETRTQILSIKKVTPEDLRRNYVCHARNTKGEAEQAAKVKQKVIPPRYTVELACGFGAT

[2] = molecular target: T4, recombinant hIL1RAP Domain1+2+3 (aa21-367) (human, UniProt Q9NPH3 21-367); experiment: as above
T4 construct: Numbering on Uniprot Q9NPH3
T4 sequence (looked up): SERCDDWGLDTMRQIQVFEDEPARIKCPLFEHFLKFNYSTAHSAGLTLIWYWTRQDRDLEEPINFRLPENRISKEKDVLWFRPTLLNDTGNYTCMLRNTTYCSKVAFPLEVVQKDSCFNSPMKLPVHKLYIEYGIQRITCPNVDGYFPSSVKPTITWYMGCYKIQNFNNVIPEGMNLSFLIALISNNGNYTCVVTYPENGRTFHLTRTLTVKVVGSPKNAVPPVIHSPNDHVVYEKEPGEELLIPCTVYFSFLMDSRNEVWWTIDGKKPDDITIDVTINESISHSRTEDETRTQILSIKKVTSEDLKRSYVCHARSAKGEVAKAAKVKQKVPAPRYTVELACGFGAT

pig IL1RAP = molecular target: T5, pig IL1RAP (pig (Sus scrofa), UniProt A0A287B9B9 21-357); experiment: as above
T5 construct: also called ssIL1RAP

[3] = molecular target: T6, recombinant mf IL1RAP aa21-367 (cynomolgus monkey (Macaca fascicularis), UniProt A0A2K5X5J5 21-367); experiment: as above
T6 construct: also called cynomolgus monkey IL1RAP; cyno IL1RAP
T6 sequence: T4 sequence (looked up) with L183F, T273P, K326T

[4] = molecular target: T1, human IL1RAP on the cell surface; experiment: cell-based or functional assay; remark: listed apart in the source
[5] = molecular target: T4, recombinant hIL1RAP Domain1+2+3 …; experiment: BLI (BLItz), antibody on Protein A biosensor, hIL1RAP (21-367) in solution
Experimental: Affinity measurements were done on BLItz™ Label-Free Protein Analysis System from ForteBio, using the Basic Kinetics module in the BLItz Pro 1.3.1.3 software from Molecular Devices. Protein A biosensors were hydrated in blocking buffer (PBS, 0.5% BSA, 0.05% Tween 20, pH 7.4) for minimum 10 min at room temperature before coating. Protein A biosensors were coated with antibodies by dipping the biosensors in 200 μl of antibody solution (10 μg/ml in blocking buffer) for 30 min at room temperature. The sensors were then incubated in 200 μl blocking buffer for at least 10 min before use. […] The baseline was made in blocking buffer with a duration time of 30 sec. Association was made for 120 sec in hIL1RAP followed by 120 sec dissociation in blocking buffer.
Affinity measurement results are shown in Table 4 for chimeric 48D2, as well as for humanized 48D2 variant VH5:VL4 (see Example 11) and for humanized and de-immunized 48D2 variant VH5.GL:VL4 (see Example 13). kₐ is the association rate constant, for characterization of the antibody binding to the target, kd is the dissociation rate constant, for characterization of the antibody dissociation from the target, and KD is the equilibrium dissociation constant between the antibody and its antigen, the ratio of kd/kₐ. […] The lower the KD value (lower concentration), the higher the affinity.

[6] = molecular target: T4, recombinant hIL1RAP Domain1+2+3 …; experiment: bio-layer interferometry, human IL1RAP

T5 sequence (A0A287B9B9 entry or part of it limits assumed): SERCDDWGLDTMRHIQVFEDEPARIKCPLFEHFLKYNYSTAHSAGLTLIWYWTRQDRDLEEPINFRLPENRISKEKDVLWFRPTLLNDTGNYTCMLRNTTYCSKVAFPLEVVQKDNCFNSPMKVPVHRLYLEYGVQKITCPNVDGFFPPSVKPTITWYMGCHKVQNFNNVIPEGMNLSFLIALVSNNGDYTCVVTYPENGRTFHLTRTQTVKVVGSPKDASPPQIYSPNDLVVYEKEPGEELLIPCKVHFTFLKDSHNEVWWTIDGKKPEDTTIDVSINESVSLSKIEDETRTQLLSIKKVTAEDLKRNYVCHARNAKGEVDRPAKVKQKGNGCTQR

IC50 of IL-1α signaling (HEK-Blue assay) [1]: 0.268 nM
IC50 of IL-1β signaling (HEK-Blue assay) [1]: 0.097 nM
IC50 of IL-33 signaling (HEK-Blue assay) [1]: 7.51 nM
IC50 of IL-36α signaling (HEK-Blue assay) [1]: 0.147 nM
IC50 of IL-36β signaling (HEK-Blue assay) [1]: 0.169 nM
IC50 of IL-36γ signaling (HEK-Blue assay) [1]: 0.206 nM
binding result (rat IL1RAP): no binding (tested: 4000 ng/mL)
binding result (mouse IL1RAP): no binding (tested: 4000 ng/mL)
EC50 (read off the curve) [2]: ~0.05 µg/mL
EC50 (read off the curve) (pig IL1RAP): ~0.05 µg/mL
EC50 (read off the curve) [3]: ~0.05 µg/mL
IC50 of IL-33 signaling (HEK-Blue cells stably transfected with the IL-36 receptor) [4]: 0.324 nM
IC50 of IL-36α signaling (HEK-Blue cells stably transfected with the IL-36 receptor) [4]: 0.0557 nM
IC50 of IL-36β signaling (HEK-Blue cells stably transfected with the IL-36 receptor) [4]: 0.161 nM
IC50 of IL-36γ signaling (HEK-Blue cells stably transfected with the IL-36 receptor) [4]: 0.088 nM
Kd [5]: 2.53 nM
koff [5]: 0.000197 s⁻¹
kon [5]: 78000 M⁻¹ s⁻¹
Kd [6]: 2.53 nM
B1: h48D2 VH5.GL:VL4 (antibody, human IgG1, kappa, L234A L235A, V domains shown)
VH: QEQLEESGGGLVKPGGTLSLTCTVSGPSLSHFDITWIRQPPGKGLEWIGTISPGVSTYYASWAKSRVTISVDTSLNTVSLKLSSVTAADTATYFCARGGVGSSWKAFDLWGPGTLVTISS
VL: ELVMTQSPSSVSASVGDRVTITCQASESISTALAWYQQKPGKAPKLLIYKASTLPSGVPSRFSGSGSGTDFTLTINSLQPEDFATYYCQQGFSSGNVHNAFGGGTKVEIKR
notes: Humanized and de-immunized; also called VL4:VH5.GL; 48D2 variant VH5.GL:VL4
